The source of these data is patent US10653613B2, “Compositions comprising lysozyme hydrolysate for use in keratin-containing tissue” (DSM IP ASSETS B.V., priority 2013, dated 2020).

A short description of series [1]: Clinical trial: plasma Trp/LNAA ratio kinetics after a single drink. Type of series: in vivo, humans. The procedure:
(§1) Lysozyme is rich in Trp. […] A product data sheet is attached as FIG. 6. Study Procedures
(§2) Washout periods between treatments were at least three days. […] The study was composed of four visits.
(§3) They then ingested one of the experimental drinks.
(§4) Fluorescence-based detection is employed.
(§5) • For Trp and LNAA determination in the blood: Approx. […] After mixing, 2 μl was injected on the column. Statistical Considerations Descriptive Statistics
Plasma samples from each time point have been analysed for levels of Trp and LNAA, i.e. the sum of Val, Ile, Leu, Tyr, and Phe. The resulting Trp/LNAA ratio was plotted against time post consumption of the intervention product.

For series [2] the following is noted: human, in vivo. The procedure: as §1, §2, §3, §4, §5

For “intact lysozyme: A hen egg-derived protein rich in Trp; naturally occurring food protein that has not been altered”, in series [1] (FIG. 2, comparison of the three treatments), the “Shape of the plasma Trp/LNAA ratio increase over time (in words)” value is on record as “much slower increase”. Besides, the “dAUC (baseline-corrected AUC of Trp/LNAA ratios), mean” value in series [1] (plasma, 0-240 min after single drink, healthy volunteers, baseline AUC subtracted) was 7.3. In series [2], the “Cysteine AUC (average)” value was 999.7, the “Cystine AUC (average)” value turned out to be 10726.7 and the “Glutathione AUC (average)” value came to 255.7.
